# Patent US20090291504A1
# T1: C-terminal Cre fragment identical to that in cCre, without leucine zipper peptide, P06956
# T1 chain: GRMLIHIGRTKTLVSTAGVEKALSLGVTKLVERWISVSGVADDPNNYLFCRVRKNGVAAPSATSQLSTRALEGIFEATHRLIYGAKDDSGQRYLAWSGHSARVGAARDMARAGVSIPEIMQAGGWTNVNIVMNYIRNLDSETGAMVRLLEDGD
# B1: N-terminal Cre fragment identical to that in nCre, without leucine zipper peptide (protein)
# chain: MSNLLTVHQNLPALPVDATSDEVRKNLMDMFRDRQAFSEHTWKMLLSVCRSWAAWCKLNNRKWFPAEPEDVRDYLLYLQARGLAVKTIQQHLGQLNMLHRRSGLPRPSDSNAVSLVMRRIRKENVDAGERAKQALAFERTDFDQVRSLMENSDRCQDIRNLAFLGIAYNTLLRIAEIARIRVKDISRTDG
# Experiments:
# [1] = molecular target: Cre fragments alpha5 + beta1 (Casanova et al. 2003) (bacteriophage P1?) (UniProt P06956+P06956); test: cell_activity; conditions: HEK293 GFP reporter
# [2] = molecular target: cCre (C-terminal half of Cre fused at its N-terminus to the C-peptide leucine zipper) (bacteriophage P1) (UniProt P06956); test: cell-based or functional assay
# [3] = molecular target: nlcCre (cCre with an extra SV40 large T antigen NLS) (Simian Virus 40; bacteriophage P1) (UniProt P06956); test: cell-based or functional assay
# [4] = test system: Cre fragment β1 (reported in Casanova et al., 2003)
# [5] = molecular target: T1, C-terminal Cre fragment identical to …
molecule,measurement,setting,value
ATAACTTCGTATAATGTATGCTATACGAAGTTAT (double strand) [loxP],Cre recombinase activity relative to intact Cre,[1],< 2%
"nCre (N-terminal half of Cre with an N-terminal SV40 large T antigen NLS, fused at its C-terminus to the N-peptide leucine zipper) (from UniProt P06956 1-190) (enzyme)","recombinase activity of intact Cre molecule reconstituted (GFP/mCherry reporter, flow cytometry, co-transfected HEK293 cells)",[2],12.1%
same,"Cre activity recovered (GFP/mCherry reporter, flow cytometry, co-transfected HEK293 cells)",[3],27.2%
"Cre fragment α5 (reported in Casanova et al., 2003)",Cre activity recovered from fragments lacking protein interaction motifs (tissue culture),[4],less than 2% Cre activity was recovered
B1,Cre activity generated by co-expression of fragments without interaction motifs (tissue culture),[5],less than 0.5% of Cre activity
